These results are taken from patent US20250282874A1 (SUZHOU TRANSCENTA THERAPEUTICS, published 2025).

Experiment [1] deals with cynomolgus PD-L1 on activated cynomolgus T cells (cynomolgus, UniProt G7PSE7 19-290). Put plainly: flow cytometry on PHA-activated cynomolgus PBMC (T cells), Mean APC-A. On the technique in general: Flow cytometry measures light scatter and fluorescence of single cells or particles in a stream.
In a further experiment the target is T1, human TGFβ1 (human, UniProt P01137 279-390).
T1 construct: also called hTGFβ-1; TGFb1
T1 sequence (P01137 279-390 limits assumed): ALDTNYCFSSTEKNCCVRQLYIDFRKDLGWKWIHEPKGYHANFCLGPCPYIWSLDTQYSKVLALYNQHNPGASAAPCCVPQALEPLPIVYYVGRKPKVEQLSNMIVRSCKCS
Put plainly: bridging ELISA, hTGFβ-1 coated, detected with hPD-L1-biotin and streptavidin-HRP. In general terms: An ELISA detects its analyte on a solid surface through an enzyme-linked reagent.

Experiment [2] concerns the target T2, hPD-L1 (Acro Biosystems, PD1-H5229) (human, UniProt Q9NZQ7 19-238).
T2 construct: also called human PD-L1; hPD-L1 protein
Nature of the experiment: ELISA, hPD-L1 coated, anti-human Fc-HRP, OD450.

Experiment [3] deals with T3, human PD-L1 expressed on cells (human, UniProt Q9NZQ7 19-290).
T3 construct: whole, on cells; also called MC38/hPD-L1
Nature of the experiment: flow cytometry on NCI-H292 cells, Mean FITC-A.

The target in another experiment is T4, human PD-L1-Fc (human, UniProt Q9NZQ7 19-239).
T4 construct: also called hPD-L1-Fc; human PD-L1-Fc (Sino Biological, 70110-D02H); not shown: Fc part
Nature of the experiment: competition ELISA, hPD-L1-Fc coated; blocked ligand hPD-1-Fc-biotin, OD450.

The target in experiment [4] is T3, human PD-L1 expressed on cells. Nature of the experiment: flow cytometry on 293T-PD-L1-CD3L cells, PE anti-human IgG, Mean PE-A.
Experiment [5] has the same target. Nature of the experiment: cell-based or functional assay.
Experiment [6] has the same target. Put plainly: cell-based or functional assay. The source holds these as a separate data set.
Experiment [7] shares this target. Put plainly: flow cytometry on 293T-PD-L1-CD3L cells, Mean FITC-A as printed.
The target of experiment [8] is T2, hPD-L1 (Acro Biosystems, PD1-H5229). Nature of the experiment: ELISA, hPD-L1 coated, anti-human Fc-HRP, OD450. This is another data set of the same source.
Experiment [9] addresses T3, human PD-L1 expressed on cells. Nature of the experiment: cell-based or functional assay. The source holds these as a separate data set.
For experiment [10] the target is unchanged. Nature of the experiment: flow cytometry on PHA-activated human PBMC (T cells), Mean APC-A.
For experiment [11] the target is unchanged. Nature of the experiment: flow cytometry on activated human T cells, Mean FITC-A.
The target of a further experiment is cynoPD-L1-Fc (cynomolgus, UniProt G7PSE7 19-238, Fc carrier is left out of the letters.). Nature of the experiment: competition ELISA, cynoPD-L1-Fc coated; blocked ligand cyno PD-1-Fc-biotin, OD450.
Chain of cynoPD-L1-Fc (G7PSE7 entry or part of it limits assumed): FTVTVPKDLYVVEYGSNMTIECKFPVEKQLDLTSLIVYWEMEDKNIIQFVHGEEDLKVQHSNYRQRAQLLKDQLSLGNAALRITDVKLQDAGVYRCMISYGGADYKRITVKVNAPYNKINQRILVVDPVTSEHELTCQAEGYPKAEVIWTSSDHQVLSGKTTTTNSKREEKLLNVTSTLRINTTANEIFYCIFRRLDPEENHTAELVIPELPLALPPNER
The target in experiment [12] is T3, human PD-L1 expressed on cells. Put plainly: flow cytometry on MC38/hPD-L1 cells, Mean FITC-A.
Experiment [13] shares this target. Put plainly: flow cytometry on EMT6/hPD-L1 cells, Mean FITC-A.
Experiment [14] shares this target. Put plainly: flow cytometry on NCI-H460 cells, Mean FITC-A.
The target in the next experiment is human CD47 (human, UniProt Q08722 19-139, limits assumed). Nature of the experiment: ELISA on human CD47, OD450.
Chain of human CD47 (Q08722 19-139 limits assumed): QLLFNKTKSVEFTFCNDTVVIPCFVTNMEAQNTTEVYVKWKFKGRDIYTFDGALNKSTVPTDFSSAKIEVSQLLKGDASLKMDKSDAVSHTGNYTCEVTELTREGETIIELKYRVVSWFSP
Experiment [15] addresses T2, hPD-L1 (Acro Biosystems, PD1-H5229). Put plainly: ELISA on human PD-L1, OD450.
The target in experiment [16] is T5, Human IL-1β protein (Sino Biological, Cat #10139) (human, UniProt P01584 117-269).
T5 construct: also called hIL-1β
Put plainly: ELISA, hIL-1β protein coated, anti-human Fc-HRP, OD450.

Experiment [17] addresses T5, Human IL-1β protein (Sino Biological, …). Put plainly: cell-based or functional assay.

Residue numbers refer to the chain shown, from its start.

Chain of cynomolgus PD-L1 on activated cynomolgus T cells (G7PSE7 entry or part of it limits assumed): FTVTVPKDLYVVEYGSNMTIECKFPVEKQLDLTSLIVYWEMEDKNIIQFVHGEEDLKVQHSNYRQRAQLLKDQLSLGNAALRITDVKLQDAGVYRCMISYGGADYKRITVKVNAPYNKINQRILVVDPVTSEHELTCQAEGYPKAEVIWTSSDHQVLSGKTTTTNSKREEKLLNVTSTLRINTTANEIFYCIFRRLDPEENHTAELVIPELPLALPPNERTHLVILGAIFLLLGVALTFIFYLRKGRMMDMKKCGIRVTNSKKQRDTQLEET

B1: AM4B6-hIgG1 monoclonal antibody (antibody, V domains shown)
VH: QVQLVQSGAEVKKPGASVKVSCKASGYVFTDYYMNWVRQAPGQSLEWMGDINPNNAETLYNHKFKGRVTVTVDKSISTAYMELSRLRSDDTAVYYCVKWGDGPFAYWGQGTLVTVSS
VL: DIQMTQSPSSLSASVGDRVTITCKASQNVGAAVAWYQQKPGKAPKLLIYSVSDRYTGVPSRFSGSGSGTDFTLTISSLQPEDIATYYCQQYSNYPTFGQGTKLEIK
notes: hIgG1; also called AM4B6 mAb; AM4B6 monoclonal antibody
Broadly, the EC50 is the midpoint of the concentration-response curve. Higher therefore signals lower potency in that assay. One may read the IC50 as the concentration needed to halve the response being measured. With B1, the EC50 in [1] was 0.684 nM; in experiment [2] it was 0.0114 nM; in experiment [3], 0.199 nM; in experiment [4], 0.903 nM; in experiment [7] it was 0.774 nM; in experiment [8] it was 0.0313 nM. Further, the EC50 in experiment [10] was found to be 0.267 nM; in experiment [11], 0.16 nM; in experiment [12] it was 0.299 nM; in [13], 0.24 nM; in experiment [14], 0.222 nM. In the experiment with human TGFβ1, the binding result is “no binding (tested: 100 nM)”. In addition, the concentration for half-maximal inhibition (IC50) with human PD-L1-Fc was determined as 2.28 nM; in the experiment with cynoPD-L1-Fc it was 2.06 nM. For the same molecule, the “IC50 (so in the source), luminescence (axis printed OD450), 293T-PD-L1-CD3L cells with Jurkat-NFAT-Luc-PD1 cells” value in experiment [5] is 0.994 nM. Further, the “IC50 (so in the source), NFAT-luciferase luminescence, 293T-PD-L1-CD3L cells with Jurkat-NFAT-Luc-PD1 cells” value in experiment [6] was found to be 1.08 nM. In [9], the “IC50 (so in the source), NFAT-luciferase luminescence, hPD-L1/hPD-1 reporter cell assay” value was 0.714 nM.

B2: AM4B6-hIgG1-SIRPα (other)
heavy: QVQLVQSGAEVKKPGASVKVSCKASGYVFTDYYMNWVRQAPGQSLEWMGDINPNNAETLYNHKFKGRVTVTVDKSISTAYMELSRLRSDDTAVYYCVKWGDGPFAYWGQGTLVTVSSASTKGPSVFPLAPSSKSTSGGTAALGCLVKDYFPEPVTVSWNSGALTSGVHTFPAVLQSSGLYSLSSVVTVPSSSLGTQTYICNVNHKPSNTKVDKKVEPKSCDKTHTCPPCPAPEFEGGPSVFLFPPKPKDTLMISRTPEVTCVVVDVSHEDPEVKFNWYVDGVEVHNAKTKPREEQYNSTYRVVSVLTVLHQDWLNGKEYKCKVSNKALPASIEKTISKAKGQPREPQVYTLPPSRDELTKNQVSLTCLVKGFYPSDIAVEWESNGQPENNYKTTPPVLDSDGSFFLYSKLTVDKSRWQQGNVFSCSVMHEALHNHYTQKSLSLSPGAGGGGSGGGGSGGGGSGGGGSGEEELQIIQPDKSVLVAAGETATLRCTITSLFPVGPIQWFRGAGPGRVLIYNQRQGPFPRVTTVSDTTKRNNMDFSIRIGNITPADAGTYYCIKFRKGSPDDVEFKSGAGTELSVRAKPS
light: DIQMTQSPSSLSASVGDRVTITCKASQNVGAAVAWYQQKPGKAPKLLIYSVSDRYTGVPSRFSGSGSGTDFTLTISSLQPEDIATYYCQQYSNYPTFGQGTKLEIKRTVAAPSVFIFPPSDEQLKSGTASVVCLLNNFYPREAKVQWKVDNALQSGNSQESVTEQDSKDSTYSLSSTLTLSKADYEKHKVYACEVTHQGLSSPVTKSFNRGEC
notes: Symmetrical bifunctional antibody against PD-L1 and CD47 (SIRPα_CV1 on the heavy chain)
As to B2, the EC50 came to 0.24 nM with human CD47 and 0.154 nM in experiment [15].

B3: AM4B6-hIgG1-SIRPα (KIH) (other)
heavy 1: B2 heavy with S354C, T366W
heavy 2: QVQLVQSGAEVKKPGASVKVSCKASGYVFTDYYMNWVRQAPGQSLEWMGDINPNNAETLYNHKFKGRVTVTVDKSISTAYMELSRLRSDDTAVYYCVKWGDGPFAYWGQGTLVTVSSASTKGPSVFPLAPSSKSTSGGTAALGCLVKDYFPEPVTVSWNSGALTSGVHTFPAVLQSSGLYSLSSVVTVPSSSLGTQTYICNVNHKPSNTKVDKKVEPKSCDKTHTCPPCPAPEFEGGPSVFLFPPKPKDTLMISRTPEVTCVVVDVSHEDPEVKFNWYVDGVEVHNAKTKPREEQYNSTYRVVSVLTVLHQDWLNGKEYKCKVSNKALPASIEKTISKAKGQPREPQVCTLPPSRDELTKNQVSLSCAVKGFYPSDIAVEWESNGQPENNYKTTPPVLDSDGSFFLVSKLTVDKSRWQQGNVFSCSVMHEALHNHYTQKSLSLSPGK
light: B2 light
notes: Asymmetric (knob into hole) bifunctional antibody
With B3, the figures for the EC50 (with human CD47; in experiment [15]) were 0.167 nM and 0.0853 nM, respectively.

B4: IgG-scFv-XOMA052-AM4B6 (bispecific antibody)
heavy: QVQLQESGPGLVKPSQTLSLTCSFSGFSLSTSGMGVGWIRQPSGKGLEWLAHIWWDGDESYNPSLKSRLTISKDTSKNQVSLKITSVTAADTAVYFCARNRYDPPWFVDWGQGTLVTVSSASTKGPSVFPLAPSSKSTSGGTAALGCLVKDYFPEPVTVSWNSGALTSGVHTFPAVLQSSGLYSLSSVVTVPSSSLGTQTYICNVNHKPSNTKVDKKVEPKSCDKTHTCPPCPAPEFEGGPSVFLFPPKPKDTLMISRTPEVTCVVVDVSHEDPEVKFNWYVDGVEVHNAKTKPREEQYNSTYRVVSVLTVLHQDWLNGKEYKCKVSNKALPASIEKTISKAKGQPREPQVYTLPPSRDELTKNQVSLTCLVKGFYPSDIAVEWESNGQPENNYKTTPPVLDSDGSFFLYSKLTVDKSRWQQGNVFSCSVMHEALHNHYTQKSLSLSPGAGGGGSGGGGSGGGGSGGGGSQVQLVQSGAEVKKPGASVKVSCKASGYVFTDYYMNWVRQAPGQSLEWMGDINPNNAETLYNHKFKGRVTVTVDKSISTAYMELSRLRSDDTAVYYCVKWGDGPFAYWGQGTLVTVSSGGGGSGGGGSGGGGSGGGGSDIQMTQSPSSLSASVGDRVTITCKASQNVGAAVAWYQQKPGKAPKLLIYSVSDRYTGVPSRFSGSGSGTDFTLTISSLQPEDIATYYCQQYSNYPTFGQGTKLTVL
light: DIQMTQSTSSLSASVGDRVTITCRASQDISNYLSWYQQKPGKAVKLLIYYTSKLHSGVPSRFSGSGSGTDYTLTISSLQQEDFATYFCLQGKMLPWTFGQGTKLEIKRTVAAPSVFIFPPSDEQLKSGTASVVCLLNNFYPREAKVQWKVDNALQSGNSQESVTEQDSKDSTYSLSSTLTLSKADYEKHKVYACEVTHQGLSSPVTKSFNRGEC
notes: Anti-IL-1β IgG (Gevokizumab) with the AM4B6 scFv on the C-terminus of the heavy chain
Regarding B4, the EC50 in experiment [2] turned out to be 0.0349 nM; in [7], 1.4 nM; in experiment [16], 0.0155 nM. Also, the “IC50 (so in the source), luminescence (axis printed OD450), 293T-PD-L1-CD3L cells with Jurkat-NFAT-Luc-PD1 cells” value in experiment [5] was 1.49 nM. In [17], the “IC50, IL-6 release (pg/mL) of HDF cells stimulated with human IL-1β” value turned out to be 0.0141 nM.
